These results are taken from US11214614B2, “LTBP complex-specific inhibitors of TGFβ and uses thereof” (Scholar Rock, Inc., priority 2019, dated 2022).

Data set [1] has as its system TGFβ downstream tonic signaling. As to the kind of experiment: TGFβ downstream tonic signaling in non-diseased rat BAL. It is filed as in vivo. An excerpt: Indeed, data presented herein support this notion. […] Preferably, TGFβ antagonists for use in the treatment of such conditions exert their inhibitory activities only towards the disease-induced or disease-associated isoform, while preserving the function of the other isoforms that are normally expressed to mediate tonic signaling in the tissue. […] Alternatively or additionally, agents that target and block integrin-dependent activation of TGFβ may be capable of blocking only a subset of integrins responsible for disease-associated TGFβ1 activation, among numerous integrin types that are expressed by various cell types and play a role in the pathogenesis. Furthermore, even where such antagonists may selectively block integrin-mediated activation of the TGFβ1 isoform, it may be ineffective in blocking TGFβ1 activation triggered by other modes, such as protease-dependent activation. Accordingly, the isoform-specific inhibitors of TGFβ1 such as those described herein are aimed to prevent the activation step of TGFβ1 regardless of the particular mode of activation, while maintaining isoform selectivity.

The conditions of data set [2]: literature reports (Frazier et al. 2007; Stauber et al. 2014, chronic ≥3 months); cited from earlier work.
For data set [3] the following is noted: Stauber et al. 2014, chronic (≥3 months) administration; cited from earlier work.
The conditions of data set [4]: in vivo; cited from earlier work.
In data set [5] the test system is male C57BL/6J mice on CDHFD (liver fibrosis). As to the kind of experiment: Choline-deficient high fat diet (CDHFD) model of mouse NASH, liver hydroxyproline content. It is filed as in vivo. To be noted: 15 mg/kg twice a week i.p., weeks 4 through 12 of CDHFD. An excerpt: The Choline deficient high fat diet (CDHFD) is an established diet-induced model of Non-Alcoholic steatohepatitis (NASH). In this model, male C57BL/6J mice are fed a choline deficient, 0.10% Methionine, high fat diet for 12 weeks. Three to six weeks after the start of the CDHFD, activation of pro-fibrotic processes can be detected through increased expression of α-smooth muscle actin (α-SMA) protein, a marker for activation of hepatic stellate cells, and elevated tissue hydroxyproline content reflecting increased collagen synthesis and deposition (Matsumoto et. al, Int J Exp Pathol. 2013 April; 94(2):93-103).
LTBP complex-specific antibodies were tested for their ability to inhibit and/or reduce the extent of liver fibrosis in mice in the CDHFD model as follows. An outline of the study is shown below in Table 21.
Animals in the test cohorts were on the CDHFD for the duration of the study. A separate cohort of mice (Group 1) were administered a regular chow diet as a study control. Antibodies SR-AB42 and SR-AB31 were administered to mice by intraperitoneal (i.p.) injection beginning at 4 weeks post start of the CDHFD. Animals were dosed at antibody test concentrations 15 mg/kg twice a week (i.e., 30 mg/kg/week) for a test duration of 8 weeks (i.e., weeks 4 through 12). […] Endpoint readout was hydroxyproline content. […]

The target of a further data set is huLTBP1 proTGFβ1 (Homo sapiens, UniProt P01137+Q14766). As to the kind of experiment: Octet (BLI) binding, IgG captured on AHC tips, antigen at 100 nM. As to conditions: Table 9, cycle 3, IgG1-agly. The gist of the method:
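Antibodies were captured on anti-human Fc biosensors at 1 μg/mL (~7 nM), to a maximum response of 1 nm. Antigen complex was run at a single 100 nM in 1× kinetics buffer, shaking at 1000 rpm. Association was 3 min and dissociation 3 min (5 min in later rounds), with KD from a local, full 1:1 fit.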

Another data set concerns the target huLTBP3 proTGFβ1 (Homo sapiens, UniProt P01137+Q9NS15). Described as above. As to conditions: Table 9, cycle 3, IgG1-agly. The gist of the method: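 Antibodies loaded at 1 μg/mL onto anti-human Fc sensors were exposed to each TGFβ1 complex at 100 nM in kinetics buffer. Association ran 3 min; dissociation was 3 min in one protocol and 5 min in another. KD came from a 1:1 fitting model.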

huLTBP3 proTGFβ1, sequence (P01137 30-390): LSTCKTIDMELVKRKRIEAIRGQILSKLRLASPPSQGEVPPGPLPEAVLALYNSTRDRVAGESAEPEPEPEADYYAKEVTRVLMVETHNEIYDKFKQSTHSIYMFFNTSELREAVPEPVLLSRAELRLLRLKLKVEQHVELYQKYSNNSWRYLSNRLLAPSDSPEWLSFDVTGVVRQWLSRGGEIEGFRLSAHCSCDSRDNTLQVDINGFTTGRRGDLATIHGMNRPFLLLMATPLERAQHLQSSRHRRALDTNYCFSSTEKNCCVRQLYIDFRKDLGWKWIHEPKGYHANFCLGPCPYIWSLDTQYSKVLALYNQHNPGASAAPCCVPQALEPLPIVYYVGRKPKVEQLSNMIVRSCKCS
huLTBP3 proTGFβ1, sequence (Q9NS15 44-1303): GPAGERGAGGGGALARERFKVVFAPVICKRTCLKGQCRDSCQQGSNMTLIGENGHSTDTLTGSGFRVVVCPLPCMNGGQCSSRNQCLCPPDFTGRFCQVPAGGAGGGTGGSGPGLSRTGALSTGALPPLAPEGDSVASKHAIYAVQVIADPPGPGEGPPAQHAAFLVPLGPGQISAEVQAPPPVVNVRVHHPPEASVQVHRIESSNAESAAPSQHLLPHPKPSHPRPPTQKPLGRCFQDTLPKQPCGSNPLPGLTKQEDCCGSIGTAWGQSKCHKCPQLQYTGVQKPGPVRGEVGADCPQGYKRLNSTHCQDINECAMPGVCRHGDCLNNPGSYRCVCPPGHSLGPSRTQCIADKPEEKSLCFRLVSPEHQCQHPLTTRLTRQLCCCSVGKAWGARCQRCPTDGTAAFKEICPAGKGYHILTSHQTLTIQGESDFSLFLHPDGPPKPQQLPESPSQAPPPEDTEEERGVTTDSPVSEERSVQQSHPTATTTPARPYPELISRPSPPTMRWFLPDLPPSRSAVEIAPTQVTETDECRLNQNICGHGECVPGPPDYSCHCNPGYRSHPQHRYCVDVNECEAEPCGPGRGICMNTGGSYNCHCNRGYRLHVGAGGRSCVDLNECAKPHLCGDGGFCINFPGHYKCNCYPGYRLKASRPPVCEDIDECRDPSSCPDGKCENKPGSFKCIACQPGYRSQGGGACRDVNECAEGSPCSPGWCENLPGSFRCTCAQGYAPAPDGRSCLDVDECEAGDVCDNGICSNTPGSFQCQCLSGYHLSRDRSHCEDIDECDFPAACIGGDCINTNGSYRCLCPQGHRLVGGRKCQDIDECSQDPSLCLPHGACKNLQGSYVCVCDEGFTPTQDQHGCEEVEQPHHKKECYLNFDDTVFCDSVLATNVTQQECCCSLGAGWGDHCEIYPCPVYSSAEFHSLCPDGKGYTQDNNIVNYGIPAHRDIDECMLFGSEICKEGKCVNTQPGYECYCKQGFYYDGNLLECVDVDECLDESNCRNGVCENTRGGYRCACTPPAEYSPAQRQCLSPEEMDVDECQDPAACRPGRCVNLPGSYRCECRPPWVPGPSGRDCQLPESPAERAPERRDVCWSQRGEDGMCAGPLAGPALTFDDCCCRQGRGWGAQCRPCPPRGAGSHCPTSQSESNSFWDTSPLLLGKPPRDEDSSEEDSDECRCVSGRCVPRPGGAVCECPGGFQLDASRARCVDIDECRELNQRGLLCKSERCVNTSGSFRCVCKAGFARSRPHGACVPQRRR
huLTBP1 proTGFβ1, sequence (P01137 30-390): as the sequence (P01137 30-390) above
huLTBP1 proTGFβ1, sequence (Q14766 347-1721 limits assumed): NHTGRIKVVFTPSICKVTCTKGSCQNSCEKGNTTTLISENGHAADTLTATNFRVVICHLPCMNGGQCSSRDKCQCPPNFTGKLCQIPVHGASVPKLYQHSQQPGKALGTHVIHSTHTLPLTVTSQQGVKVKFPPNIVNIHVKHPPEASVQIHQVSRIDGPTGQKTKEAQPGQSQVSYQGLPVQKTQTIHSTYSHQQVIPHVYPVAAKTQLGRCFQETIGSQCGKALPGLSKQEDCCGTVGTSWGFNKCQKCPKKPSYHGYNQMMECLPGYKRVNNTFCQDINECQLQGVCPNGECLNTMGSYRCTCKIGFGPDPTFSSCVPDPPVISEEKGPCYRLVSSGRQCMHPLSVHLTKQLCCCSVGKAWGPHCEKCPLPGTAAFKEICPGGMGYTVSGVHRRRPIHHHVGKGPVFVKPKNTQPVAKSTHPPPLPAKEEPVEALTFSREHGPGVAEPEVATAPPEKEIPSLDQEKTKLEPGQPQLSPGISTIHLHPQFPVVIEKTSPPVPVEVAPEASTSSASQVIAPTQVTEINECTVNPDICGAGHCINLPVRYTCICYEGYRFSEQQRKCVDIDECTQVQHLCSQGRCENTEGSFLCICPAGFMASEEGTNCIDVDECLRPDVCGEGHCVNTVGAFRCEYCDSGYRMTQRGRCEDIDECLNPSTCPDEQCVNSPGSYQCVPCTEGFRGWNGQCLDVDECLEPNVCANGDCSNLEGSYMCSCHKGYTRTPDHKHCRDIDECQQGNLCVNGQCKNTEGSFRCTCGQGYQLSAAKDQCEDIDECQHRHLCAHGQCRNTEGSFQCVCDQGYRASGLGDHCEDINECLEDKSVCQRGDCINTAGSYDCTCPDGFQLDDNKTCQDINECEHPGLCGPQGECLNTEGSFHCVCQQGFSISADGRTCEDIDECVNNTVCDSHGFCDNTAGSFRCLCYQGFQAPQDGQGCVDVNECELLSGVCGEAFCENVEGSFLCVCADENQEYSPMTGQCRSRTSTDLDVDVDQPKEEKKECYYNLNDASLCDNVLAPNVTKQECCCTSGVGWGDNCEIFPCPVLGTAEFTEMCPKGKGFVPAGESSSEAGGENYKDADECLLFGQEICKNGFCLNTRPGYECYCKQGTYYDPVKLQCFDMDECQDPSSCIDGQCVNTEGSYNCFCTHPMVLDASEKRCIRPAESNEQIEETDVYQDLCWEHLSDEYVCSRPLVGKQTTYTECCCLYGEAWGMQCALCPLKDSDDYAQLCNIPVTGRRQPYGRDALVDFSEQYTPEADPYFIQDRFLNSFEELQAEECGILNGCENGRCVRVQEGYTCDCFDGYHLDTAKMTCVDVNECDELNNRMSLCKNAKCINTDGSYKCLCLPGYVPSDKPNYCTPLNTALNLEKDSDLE

For the molecule `c1ccc(-c2nn3c(c2-c2ccnc4cc(OCCN5CCOCC5)ccc24)CCC3)nc1` [LY2109761], the “TGFβ downstream tonic signaling” value in data set [1] was “inhibit TGFβ downstream tonic signaling in non-diseased rat BAL”.
Take `Cc1cccc(-c2nn3c(c2-c2ccnc4ccc(C(N)=O)cc24)CCC3)n1` [LY2157299]: the Toxicity in rats entry in data set [2] was “caused multiple organ toxicities involving the cardiovascular, gastrointestinal, immune, bone/cartilage, reproductive, and renal systems”. The Toxicity in dogs result in data set [3] is “caused multiple organ toxicities involving the cardiovascular, gastrointestinal, immune, bone/cartilage, reproductive, and renal systems”.
In the case of “GC1008: a “pan” TGFβ antibody capable of neutralizing all human isoforms of TGFβ”, in data set [4], the “Exposure, DN Cmax, Human” value is recorded as “DN Cmax ~(350 ng/mL) (ng/mL) mg” and the “Exposure, Half-life, Human” value was “Half-life: 21.7 d”.

B1: SR-AB31: cycle 3 light chain-optimized antibody, lineage SR-AB22; CDRs SEQ ID NO: 124-129 (antibody, V domains shown)
VH: QVQLVESGGGVVQPGRSLRLSCAASGFTFRSYVMHWVRQAPGKGLEWVAVISHEGSLKYYADSVKGRFTISRDNSKNTLYLQMNSLRAEDTAVYYCAVPRIAARRGGFGYWGQGTLVTVSS
VL: NFMLTQPHSVSESPGKTVTISCTRSSGNIDNNYVQWYQQRPGSSPTTVIYEDNQRPSGVPDRFSGSIDSSSNSASLTISGLKTEDEADYYCQSYDFNNQGVVFGGGTKLTVL
Regarding B1, in data set [5], the “Hydroxyproline (HYP) in liver tissue” value was “inhibited the increase in HYP”. For the same molecule, the “Hu LTBP1-proTGFβ1 Kon” value with huLTBP1 proTGFβ1 (1:1 fit) amounted to 240000 M⁻¹ s⁻¹. The “Hu LTBP1-proTGFβ1 Koff” value with huLTBP1 proTGFβ1 (5-minute dissociation) is 9.89e-05 s⁻¹. Further, the “Hu LTBP3-proTGFβ1 Kon” value with huLTBP3 proTGFβ1 (1:1 fit) came to 308000 M⁻¹ s⁻¹. Moreover, the “Hu LTBP3-proTGFβ1 Koff” value with huLTBP3 proTGFβ1 (5-minute dissociation) came out at 6.81e-05 s⁻¹.
